Residue numbers refer to the chain shown, from its start. Names and notes keep the numbering of the source. Blank lines part the entries; values can stand above or below the binder they belong to.
What was measured:
[1] = target: T1, human C1s deletion mutant 3 (NHCΔ33) (human, UniProt P09871 16-404); test: ELISA, C1s fragment coated on plate; hz2-8(H1L2 G80A), first of the two values
T1 construct: C-terminal 6xHis tag; also called human C1s (NHCΔ33); C1s (NHCΔ33)
T1 sequence: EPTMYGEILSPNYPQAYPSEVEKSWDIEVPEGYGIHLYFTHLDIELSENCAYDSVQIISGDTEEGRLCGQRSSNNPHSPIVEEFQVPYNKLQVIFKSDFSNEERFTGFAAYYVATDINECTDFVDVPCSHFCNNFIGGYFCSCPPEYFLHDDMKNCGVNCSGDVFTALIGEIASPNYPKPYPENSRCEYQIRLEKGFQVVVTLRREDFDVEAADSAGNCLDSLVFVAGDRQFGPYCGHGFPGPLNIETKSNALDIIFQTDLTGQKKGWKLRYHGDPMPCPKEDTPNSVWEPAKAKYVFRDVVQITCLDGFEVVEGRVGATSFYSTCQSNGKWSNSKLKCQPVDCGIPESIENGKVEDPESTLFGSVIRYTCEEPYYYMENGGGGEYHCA
Method: (§1) ELISA was carried out by first coating 96-well plates with 200 ng/well of full-length or truncated C1s proteins overnight. The next morning, plates were blocked with SuperBlock T20 blocking buffer (Thermo Scientific 37536) for 1 h with gentle shaking. Then, various concentrations of anti-C1s antibodies diluted in SuperBlock T20 blocking buffer were added to the plates and incubated for 1 h with gentle shaking. Mouse IgG (Sigma-Aldrich 15381) and human IgG1 (BioXCell BP0297) were used as negative controls. The plates were washed before incubating with HRP conjugated secondary antibodies diluted in SuperBlock T20 blocking buffer (goat anti-mouse IgG (H+L) cross-adsorbed secondary antibody HRP (Invitrogen G-21040) or goat anti-human IgG antibody, HRP conjugate (Millipore AP309P)) for 1 h with gentle shaking. At last, the plates were washed and color developed with ELISA liquid HRP substrate (Sigma-Aldrich), followed by stopping the reaction with addition of 1M H₂SO₄ in the same volume as the ELISA liquid substrate. Bound antibody was measured by absorbance at OD₄₅₀ₙₘ.
Binding of various anti-C1s antibodies to human C1s (NHCΔ33) (SEQ ID NO: 111) was carried out by ELISA as described in Example 4, and results are shown in FIG. 6A.

[2] = target: T2, full-length human C1s (produced in house) (human, UniProt P09871 16-688); test: BLI (Octet RED96e), antibody on AHC biosensor; C1s Species: Human; R^2 0.9992
T2 construct: Called full-length; Partly auto-cleaved at R422-I423 on blots; also called HuC1s; Hu C1s
T2 sequence: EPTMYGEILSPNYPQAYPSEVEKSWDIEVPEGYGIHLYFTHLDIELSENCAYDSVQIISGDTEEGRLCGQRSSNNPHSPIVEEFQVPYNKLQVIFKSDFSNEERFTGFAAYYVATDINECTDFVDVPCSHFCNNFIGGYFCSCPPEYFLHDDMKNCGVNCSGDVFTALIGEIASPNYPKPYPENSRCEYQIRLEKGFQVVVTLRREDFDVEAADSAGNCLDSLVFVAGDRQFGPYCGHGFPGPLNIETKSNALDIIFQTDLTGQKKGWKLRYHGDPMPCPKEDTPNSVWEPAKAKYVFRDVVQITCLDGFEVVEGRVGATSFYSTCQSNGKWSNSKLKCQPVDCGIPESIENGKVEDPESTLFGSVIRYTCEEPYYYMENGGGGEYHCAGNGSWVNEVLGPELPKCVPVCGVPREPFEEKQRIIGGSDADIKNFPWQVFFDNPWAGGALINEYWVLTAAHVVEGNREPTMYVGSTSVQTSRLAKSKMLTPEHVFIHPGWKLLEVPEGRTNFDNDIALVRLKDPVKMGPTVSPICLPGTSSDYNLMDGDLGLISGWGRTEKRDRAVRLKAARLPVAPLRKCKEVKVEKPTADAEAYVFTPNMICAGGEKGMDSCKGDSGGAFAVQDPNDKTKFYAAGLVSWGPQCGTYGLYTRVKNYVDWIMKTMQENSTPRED
Text: At last, analyte was dissociated in 1×KB for 360 sec. Data analysis was done using OCTET® Data Analysis HT Software (Sartorius AG).

[3] = target: T3, human C1s mutant M9 (K336G, D343Y & E351A) (human, UniProt P09871 16-688); test: ELISA, plate coated with human C1s mutant M9: K336G, D343Y, E351A, OD450nm; the curve reaches only OD450 about 0.7 at 1000 ng/ml
T3 construct: The entry is the mutant itself
T3 sequence: T2 sequence with K336G, D343Y, E351A
Method: as §1
Binding of anti-C1s antibodies to mutants M1-M20 of human C1s was measured by ELISA as described in Example 4, and results are shown in FIGS. 6B-6U. […]

EC50 [1]: 0.008 µg/mL
B1: Anti-C1s antibody hz2-8 (H1L2 G80A) (antibody, V domains shown)
VH: QVQLVQSGAEVKKPGASVKVSCKASGFNIKEYYMHWVRQAPEQGLEWMGWIDPENADTIYAQKFQGRVTITADTSTNTAYMELSSLRSEDTAVYYCARSRLFFAYWGQGTLVTVSS
VL: DIQMTQSPKSLSASVGDRVTITCRASQDVRTALDWYQQKPGQSPKLLIYSASYRYSGVPSRFSGSGSGTDFTLTISSLQPEDFATYYCQQQYTTPYTFGQGTKLEIKR
notes: Humanized variant with G80A in HC CDR2 (already in the entry), human IgG1 / kappa

Kd [2]: 32 pM
koff [2]: 0.00012 s⁻¹
kon [2]: 3.8e+06 M⁻¹ s⁻¹
B2: Anti-C1s antibody 2-8 (antibody, V domains shown)
VH: EVQLQQSGAELVRPGALVKLSCKASGFNIKEYYMHWVKQRPEQGLEWIGWIDPENGDTIYDPKFQGKASITADTSSNTAYLQLSSLTSEDTAVYYCARSRLFFAYWGQGTLVTVSA
VL: DIVMTQSHKFMSTSVGDRVSFTCKASQDVRTAVDWYQQKPGQSPKLLIYSASYRYTGVPDRFTGTGSGTDFTFTISSVQAEDLAVYFCQQQYTTPYTFGGGTKLEIKT
notes: the HC/LC entries may hold it too; also called clone 2-8

EC50 [3]: 0.013 µg/mL
B3: Anti-C1s antibody hz2-7(H1L2) (antibody, V domains shown)
VH: EVQLLESGGGLVQPGGSLRLSCAASGFTFSNYFMNWVRQAPGKGLEWVSEIRLKFTNYATHYADSVKGRFTISRDDSKSTLYLQMNSLRAEDTAVYYCTRDYGSRNGYFDYWGQGTLVTVSS
VL: DIVMTQTPLSLPVTPGEPASISCRSSKSLLHSNGNTFLYWFLQKPGQSPQLLIYRMSNLASGVPDRFSGSGSGTDFTLKISRVEAEDVGVYYCMQHLEYPYTFGGGTKLEIKR
notes: Humanized, human IgG1 / kappa; also called hz2-7(1L2)

— patent US20230051715A1 (MABWELL THERAPEUTICS, published 2023)
